Assay results as given in paper PMC3967975 (Molecular Biology of the Cell, 2014).
Where a chain is given by its changes, count along the chain named. Numbers in names are those of the source. Where two headings read alike, the source gives them in different places.

B1: His::lamin R55H (full-length Ce-lamin bearing the R55H mutation) (natural protein, C. elegans, UniProt Q21443 1-566, looked up)
chain: MSSRKGTRSSRIVTLERSANSSLSNNGGGDDSFGSTLLETSRLQEKDHLTSLNSHLATYIDKVRQLEQENNRLQVQIRDIEVVEKKEKSNLADRFEAEKARLRRALDSAQDELAKYRIEYDAAKVEVKKLKPQVEKLERELAGAEEQALHAQSIADQSQAKQKTLQARNDKLVVENDDLKKQNITLRDTVEGLKKAVEDETLLRTAANNKIKALEEDLAFALQQHKGELEEVRHKRQVDMTTYAKQINDEYQSKLQDQIEEMRAQFKNNLHQNKTAFEDAYKNKLNAARERQEEAVSEAIHLRARVRDLETSSSGNASLIERLRSELDTLKRSFQEKLDDKDARIAELNQEIERMMSEFHDLLDVKIQLDAELKTYQALLEGEEERLNLTQEAPQNTSVHHVSFSSGGASAQRGVKRRRVVDVNGEDQDIDYLNRRSKLNKETVGPVGIDEVDEEGKWVRVANNSEEEQSIGGYKLVVKAGNKEASFQFSSRMKLAPHASATVWSADAGAVHHPPEVYVMKKQQWPIGDNPSARLEDSEGDTVSSITVEFSESSDPSDPADRCSIM
B2: Ce-lamin tail domain (residues 388–566), His-tagged (domain or fragment, C. elegans, UniProt Q21443 388-566, looked up)
chain: NLTQEAPQNTSVHHVSFSSGGASAQRGVKRRRVVDVNGEDQDIDYLNRRSKLNKETVGPVGIDEVDEEGKWVRVANNSEEEQSIGGYKLVVKAGNKEASFQFSSRMKLAPHASATVWSADAGAVHHPPEVYVMKKQQWPIGDNPSARLEDSEGDTVSSITVEFSESSDPSDPADRCSIM
B3: MBP::BAF-1 (wild-type C. elegans barrier to autointegration factor 1 fused to maltose-binding protein) (natural protein, UniProt Q03565 1-89, looked up)
chain: MSTSVKHREFVGEPMGDKEVTCIAGIGPTYGTKLTDAGFDKAYVLFGQYLLLKKDEDLFIEWLKETAGVTANHAKTAFNCLNEWADQFM
B4: MBP::BAF-1 F46E (natural protein, C. elegans, UniProt Q03565 1-89, looked up)
chain: B3 chain with F46E
B5: MBP::BAF-1 K6A (natural protein, C. elegans, UniProt Q03565 1-89, looked up)
chain: B3 chain with K6A
B6: MBP::BAF-1 S4E (natural protein, C. elegans, UniProt Q03565 1-89, looked up)
chain: B3 chain with S4E
B7: MBP::BAF-1 S4A (natural protein, C. elegans, UniProt Q03565 1-89, looked up)
chain: B3 chain with S4A
B8: His::emerin 1–125 (Ce-emerin residues 1–125, nucleoplasmic domain only) (domain or fragment, C. elegans, UniProt O01971 1-125, looked up)
chain: MDVSQLTDAELRDSLKSHGVSVGPIVATTRKLYEKKLIKLSDGSINNQSNLNDSQFNEDSLIISSSPKKSPPQRVFQNVSAATAAATTSPESDSDDCEESMRYLTEEEMAADRASARQAQSNKGG

Assays:
Experiment in all cases: SPR
[1] = molecular target: the molecule itself
[2] = molecular target: B1
[3] = molecular target: B8
[4] = molecular target: the molecule itself; remark: listed apart in the source
[5] = molecular target: B1; remark: listed apart in the source

Binder | Kd [1] [nM] | Kd [2] [nM] | Kd [3] [nM] | Kd [4] [nM] | Kd [5] [nM]
B1 | 3.7 |  |  |  | 
B2 |  | 0.56 |  |  | 
B3 |  | 84 | 57 |  | 
B4 |  | 623 | 5.6 |  | 
B5 |  | 198 | 31 |  | 
B6 |  | 32100 | ~57 |  | 
B7 |  | 281 | 20 |  | 
B8 |  |  |  | 14 | 4 to 5
